Residue numbers refer to the chain shown, from its start.
T1: Human IL-33 Flag®His (human)
T1 construct: Mature IL-33 with C-terminal FLAG 10xHis tag, from E. coli; biotinylated via free cysteines where used biotinylated; also called Mature Human IL-33_FH; human IL-33 FH
T1 chain: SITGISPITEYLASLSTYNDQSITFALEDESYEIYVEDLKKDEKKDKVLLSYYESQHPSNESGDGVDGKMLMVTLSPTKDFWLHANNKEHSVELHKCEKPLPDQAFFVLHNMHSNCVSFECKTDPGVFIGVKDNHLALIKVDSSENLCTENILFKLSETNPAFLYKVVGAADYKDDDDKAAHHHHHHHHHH

T2: Human IL-33 (Axxora/Adipogen AG-40B-0038) (human, UniProt O95760 112-270, limits assumed)
T2 construct: Bought; also called IL-33 (Adipogen); biotinylated human IL-33
T2 sequence (looked up): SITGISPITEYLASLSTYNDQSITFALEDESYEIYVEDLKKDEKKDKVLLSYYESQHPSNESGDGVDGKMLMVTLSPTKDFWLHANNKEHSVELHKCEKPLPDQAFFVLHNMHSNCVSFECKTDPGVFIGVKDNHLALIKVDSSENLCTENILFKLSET

T3: His10/Avi Human IL33-01 (human)
T3 construct: Wild type mature IL-33 with N-terminal 10xHis, Avitag and Factor Xa site; biotinylated by BirA on the Avitag where used biotinylated; reduced form unless treated; also called N-terminal His Avi IL-33; His-Avi human IL-33 wild type
T3 chain: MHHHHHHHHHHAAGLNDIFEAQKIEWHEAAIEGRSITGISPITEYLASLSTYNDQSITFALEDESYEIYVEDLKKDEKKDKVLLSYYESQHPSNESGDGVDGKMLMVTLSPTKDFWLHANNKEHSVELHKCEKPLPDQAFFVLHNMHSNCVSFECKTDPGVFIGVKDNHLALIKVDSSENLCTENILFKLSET

T4: His10/Avi Cyno IL-33 (cynomolgus monkey)
T4 construct: also called Cynomolgus 10His Avitag IL-33; biotinylated His Avi cynomolgus IL-33
T4 chain: T3 chain with E77K, N94S, H118Q, M146R, H147S, S148F, S177Y, C182G, T183S, T193I

T5: Full-length human IL-33 (amino acids 1-270), HEK293-EBNA cell lysate (human, UniProt O95760 1-270)
T5 sequence (looked up): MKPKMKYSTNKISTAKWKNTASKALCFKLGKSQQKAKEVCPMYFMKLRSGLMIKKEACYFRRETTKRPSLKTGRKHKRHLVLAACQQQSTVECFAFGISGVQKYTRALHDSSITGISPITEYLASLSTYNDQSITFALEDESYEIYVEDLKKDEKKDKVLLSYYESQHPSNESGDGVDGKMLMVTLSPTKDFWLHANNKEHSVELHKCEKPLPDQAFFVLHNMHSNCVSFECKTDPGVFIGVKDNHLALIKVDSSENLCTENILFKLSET

T6: Endogenous human IL-33 (human, UniProt O95760 1-270, limits assumed)
T6 sequence (looked up): T5 sequence (looked up)

B1: Cynomolgus IL-33 Flag®His (ligand)
chain: SITGISPITESLASLSTYNDQSITFALEDESYEIYVEDLKKDKKKDKVLLSYYESQHPSSESGDGVDGKMLMVTLSPTKDFWLQANNKEHSVELHKCEKPLPDQAFFVLHNRSFNCVSFECKTDPGVFIGVKDNHLALIKVDYSENLGSENILFKLSEINPAFLYKVVGAADYKDDDDKAAHHHHHHHHHH
notes: C-terminal FLAG 10xHis tag, E. coli; also called Mature Cynomolugus IL-33; cyno IL-33 FH
B2: IL330125 IgG1 (antibody, V domains shown)
VH: EVQLVQSGAEVKKPGASVTVSCKASGYSFTDYYIHWVRQAPGQGPEWMGWINPNSGVTDFAQKFLGRVTMTRDTSISTAYMELSRLTSDDTALYYCARVAFVYYDSSAFQYWGKGTLVTVSS
VL: LPVLTQPPSVSVSPGQTATITCSADKLGDKYAAWYQQKPGQSPVLVIYQDRKRPSGIPERFSGSNSGNTATLIISGTQAMDEADYYCQAWDSNTGLYVFGTGTKLTVL
notes: Human IgG1, lambda constant
B3: H338L293 (SEQ ID NOs 182 and 187) (antibody, V domains shown)
VH: EVQLLESGGGLVQPGGSLRLSCAASGFTFSSYAMSWVRQAPGKGLEWVSAISPREGWQYYADSVKGRFTISRDNSKNTLYLQMNSLRAEDTAVYYCVRVVAGYFDSWGRGTLVTVSS
VL: SYELMQPPSVSVSPGQTARITCSGDALPKQYAHWYQQKPGQAPVLVIYKDTERPSGIPERFSGSSSGTTVTLTISGVQAEDEADYYCMSSDPSGASRVFGGGTKLTVL
notes: IgG; also called H338L293_fgl; H338L293 IgG
B4: IL330259 IgG1 (antibody, V domains shown)
VH: B3 VH with I51S, S52T, R54W, E55Q, W57S, Q58T
VL: B3 VL with E3V, M5T, V44A, M88Q, S90A, P92S, L105V
notes: IgG1
B5: 33_640050 IgG1 (antibody, V domains shown)
VH: EVQLLESGGGLVQPGGSLRLSCAASGFTFSSYAMSWVRQAPGKGLEWVSAISGSGGSTYYADSVKGRFTISRDNSKNTLYLQMNSLRAEDTAVYYCPRHKFMQLWGGGLRYPFGYWGQGTMVTVSS
VL: SYVLTQPPSVSVSPGQTASITCSGERMGDKYAAWYQQKPGQSPVLVIYQDTKRPSGIPERFSGSNSGNTATLTISGTQAMDEADYYCQVWDSSTGVFGGGTKVTVL
notes: IgG1; also called ZZ1F7Q-D10
B6: IL330126 IgG1 (antibody, V domains shown)
VH: EVQLVQSGAELKKPGASVKVSCKTSGYSFNTYGISWVRQAPGQGLEWMGWVSGDDGNINYAEKFQGRVAMTTDTSTTTAYMELWSLTSDDTAVYYCARVRRGSGWYKNYHYYMDVWGQGTMVTVSS
VL: QSVLTQPPSVSVSPGQTASVTCSGDRLGDKYASWYQQKPGQSPVLVIYQDRKRPSGIPERFSGSNSGNTATLTISGTQAMDEADYYCQAWDGSTALFGGGTKLTVL
notes: Human IgG1, lambda constant

Tests used:
33_640087-7B IgG1 = target: T7, 33_640087-7B IgG1; assay: HTRF: unlabelled test protein competes with biotinylated human IL33-01 for DyLight650 labelled 33_640087-7B IgG
T7 construct: IgG1
Procedure: Human, cyno and mouse IL-33 FLAG® His (described in Example 1 and Table 21), Human IL-1 alpha and IL-1 beta (R&D Systems) (Table 21) or rat IL-33 (GenScript) were tested for inhibition of human IL-33 binding to DyLight650 labelled 33_640087-7B or DyLight650 labelled 33_640237-2B by adding 5 microlitres of each dilution of sample to a 384 well low volume assay plate (Costar, 3673). […] This was followed by the addition of 2.5 microlitres of a solution containing 0.12 nM biotinylated human IL-33-01 combined with 0.75 nM streptavidin cryptate detection (Cisbio International, 610SAKLB). All dilutions were performed in assay buffer containing 0.8 M potassium fluoride (VWR, 26820.236) and 0.1% bovine serum albumin (BSA, PAA, K05-013) in Dulbeccos PBS (Invitrogen, 14190185). Assay plates were incubated for 4 hours at room temperature followed by 18 hours at 4 degrees Celsius and time resolved fluorescence was read at 620 nm and 665 nm emission wavelengths using an EnVision plate reader (Perkin Elmer). Data were analysed by calculating the 665/620 nm ratio followed by the % Delta F values for each sample. The 665/620 nm ratio was used to correct for sample interference using Equation 1. The % Delta F for each sample was then calculated using Equation 2. […] IC₅₀ values were determined using GraphPad Prism software by curve fitting using a four-parameter logistic equation (Equation 4).

33_640237-2B IgG1 = target: T8, 33_640237-2B IgG1; assay: HTRF: unlabelled test protein competes with biotinylated human IL33-01 for DyLight650 labelled 33_640237-2B IgG
T8 construct: IgG1
Procedure: Human, cyno and mouse IL-33 FLAG® His (described in Example 1 and Table 21), Human IL-1 alpha and IL-1 beta (R&D Systems) (Table 21) or rat IL-33 (GenScript) were tested for inhibition of human IL-33 binding to DyLight650 labelled 33_640087-7B or DyLight650 labelled 33_640237-2B by adding 5 microlitres of each dilution of sample to a 384 well low volume assay plate (Costar, 3673). […] This was followed by the addition of 2.5 microlitres of a solution containing 0.12 nM biotinylated human IL-33-01 combined with 0.75 nM streptavidin cryptate detection (Cisbio International, 610SAKLB). All dilutions were performed in assay buffer containing 0.8 M potassium fluoride (VWR, 26820.236) and 0.1% bovine serum albumin (BSA, PAA, K05-013) in Dulbeccos PBS (Invitrogen, 14190185). Assay plates were incubated for 4 hours at room temperature followed by 18 hours at 4 degrees Celsius and time resolved fluorescence was read at 620 nm and 665 nm emission wavelengths using an EnVision plate reader (Perkin Elmer). Data were analysed by calculating the 665/620 nm ratio followed by the % Delta F values for each sample. The 665/620 nm ratio was used to correct for sample interference using Equation 1. The % Delta F for each sample was then calculated using Equation 2. The negative control (non-specific binding) was defined by replacing biotinylated human IL-33 combined with streptavidin cryptate detection with streptavidin cryptate detection only. The % Delta F values were subsequently used to calculate % specific binding as described in Equation 3. IC₅₀ values were determined using GraphPad Prism software by curve fitting using a four-parameter logistic equation (Equation 4).

[1] = target: B1; assay: HTRF competition: purified IgG titrated against biotinylated human ST2-Fc for FLAG-His cynomolgus IL-33
Procedure: (§1) Activity of purified IgG preparations were determined by competing a dilution series of the purified IgG against biotinylated human or mouse ST2.Fc for binding to FLAG® His-tagged human, cynomolgus or mouse IL-33.
(§2) Purified or unpurified anti-IL-33 antibody samples were tested for inhibition of FLAG®-His tagged IL-33 binding ST2-Fc by adding 10 microlitres of each dilution of antibody test sample to a 384 well low volume assay plate (Costar 3676). Next, a solution containing 4 nM biotinylated human or mouse ST2-Fc and 20 nM streptavidin XL665 detection (Cisbio International, 611SAXLB) was prepared and 5 microlitres of the mix added to the assay plate. This was followed by the addition of 5 microlitres of a solution containing 1.2 nM FLAG®-His tagged human, cynomolgus or mouse IL-33 combined with 1.72 nM anti-FLAG® cryptate detection (Cisbio International, 61FG2KLB). All dilutions were performed in assay buffer comprised of Dulbeccos PBS (Invitrogen, 14190185) containing 0.8 M potassium fluoride (BDH 103444T) and 0.1% BSA (Sigma A9576). Assay plates were incubated for 2 hour at room temperature followed by 16 hour at 4° C. before reading time resolved fluorescence at 620 nm and 665 nm emission wavelengths using an EnVision plate reader (Perkin Elmer).

Human IL-33 Flag®His [2] = target: T1, Human IL-33 Flag®His; assay: HTRF competition, IgG titrated against biotinylated human ST2-Fc
Procedure: The ability of anti-IL-33 antibodies to inhibit the binding of FLAG®-His tagged IL-33 to the ST2 receptor was assessed in a biochemical HTRF® (Homogeneous Time-Resolved Fluorescence, Cisbio International) competition assay, the principles of which are described above.
as §1, §2

Human IL-33 Flag®His [3] = target: T1, Human IL-33 Flag®His; assay: cell-based or functional assay
Human IL-33 Flag®His [4] = target: T1, Human IL-33 Flag®His; assay: HTRF: IL-33FH binding to biotinylated ST2-Fc, IgG titrated, after 18 h pre-incubation of IgG with IL-33
[5] = target: T2, Human IL-33 (Axxora/Adipogen …); assay: HTRF epitope competition: unlabelled IgG against DyLight labelled IL330101 IgG for biotinylated human IL-33
His10/Avi Human IL33-01 [6] = target: T3, His10/Avi Human IL33-01; assay: HTRF epitope competition, IgG titrated; competitor DyLight labelled 33_640117 IgG; 1 hour
In short: (§3)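 HTRF competition in which titrated IgG blocks binding of DyLight-labelled 33_640117 IgG (2.5 nM stock) to biotinylated IL-33 detected with streptavidin cryptate: human IL-33-01 at 0.12 nM with 0.75 nM cryptate, cyno IL-33 at 0.24 nM with 1.5 nM cryptate (solution concentrations). Fluorescence read after 1 h and overnight.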

His10/Avi Cyno IL-33 = target: T4, His10/Avi Cyno IL-33; assay: as above
In short: as §3

His10/Avi Human IL33-01 [7] = target: T3, His10/Avi Human IL33-01; assay: HTRF competition: purified IgG against FLAG-His human ST2 for biotinylated IL33-01, overnight incubation
His10/Avi Human IL33-01 [8] = target: T3, His10/Avi Human IL33-01; assay: HTRF epitope competition, IgG titrated; competitor DyLight labelled 33_640117 IgG; overnight
In short: as §3

[9] = target: T5, Full-length human IL-33 (amino acids …); assay: cell-based or functional assay
Endogenous human IL-33 = target: T6, Endogenous human IL-33; assay: cell-based or functional assay

Binder: B1
IC50 (read off the curve) (33_640087-7B IgG1): ~10 nM
IC50 (read off the curve) (33_640237-2B IgG1): ~200 nM

Binder: B2
binding result [1]: binds
IC50 (Human IL-33 Flag®His [2]): 210 nM
IC50, human ST2 transfected HeLa NFkB luciferase reporter assay (Human IL-33 Flag®His [3]): 332 nM

Binder: B3
IC50 (read off the curve) (Human IL-33 Flag®His [4]): ~30 nM

Binder: B4
IC50 (read off the curve) [5]: ~100 pM

Binder: B5
IC50 (His10/Avi Human IL33-01 [6]): 0.3 nM
IC50 (His10/Avi Cyno IL-33): 4.1 nM
IC50 (read off the curve) (His10/Avi Human IL33-01 [7]): ~500 pM
IC50 (His10/Avi Human IL33-01 [8]): 1.5 nM
IC50, Huvec IL-8 assay vs. full length IL-33 cell lysate [9]: 0.32 nM
IC50, Huvec IL-8 release stimulated by human lung lysate (Endogenous human IL-33): 0.032 nM

Binder: B6
binding result [1]: binds
IC50 (Human IL-33 Flag®His [2]): 226 nM
IC50, human ST2 transfected HeLa NFkB luciferase reporter assay (Human IL-33 Flag®His [3]): 245 nM

— patent US20200353078A1 (AstraZeneca / MedImmune, published 2020)
